Test results taken from PMC9245612 (Proceedings of the National Academy of Sciences of the …, 2022).

Legend:
SEC = molecular target: the molecule itself; assay: SEC
purified protein = substrate: Nc1ncnc2c1ncn2[C@@H]1O[C@H](COP(=O)(O)OP(=O)(O)OP(=O)(O)O)[C@@H](O)[C@H]1O; assay: purified protein; conditions: co-substrate NAD+, 37 °C

B1: human cytosolic NADK, full-length (enzyme, UniProt O95544 1-446, looked up)
chain: MEMEQEKMTMNKELSPDAAAYCCSACHGDETWSYNHPIRGRAKSRSLSASPALGSTKEFRRTRSLHGPCPVTTFGPKACVLQNPQTIMHIQDPASQRLTWNKSPKSVLVIKKMRDASLLQPFKELCTHLMEENMIVYVEKKVLEDPAIASDESFGAVKKKFCTFREDYDDISNQIDFIICLGGDGTLLYASSLFQGSVPPVMAFHLGSLGFLTPFSFENFQSQVTQVIEGNAAVVLRSRLKVRVVKELRGKKTAVHNGLGENGSQAAGLDMDVGKQAMQYQVLNEVVIDRGPSSYLSNVDVYLDGHLITTVQGDGVIVSTPTGSTAYAAAAGASMIHPNVPAIMITPICPHSLSFRPIVVPAGVELKIMLSPEARNTAWVSFDGRKRQEIRHGDSISITTSCYPLPSICVRDPVSDWFESLAQCLHWNVRKKQAHFEEEEEEEEEG
- stoichiometry N (SEC): 4

B2: human NADK2 mature protein (amino acids 47 to 442) (enzyme, UniProt Q4G0N4 47-442, looked up)
chain: LGQGQPRELAGCGSRADGGFRPSRVVVVAKTTRYEFEQQRYRYAELSEEDLKQLLALKGSSYSGLLERHHIHTKNVEHIIDSLRNEGIEVRLVKRREYDEETVRWADAVIAAGGDGTMLLAASKVLDRLKPVIGVNTDPERSEGHLCLPVRYTHSFPEALQKFYRGEFRWLWRQRIRLYLEGTGINPVPVDLHEQQLSLNQHNRALNIERAHDERSEASGPQLLPVRALNEVFIGESLSSRASYYEISVDDGPWEKQKSSGLNLCTGTGSKAWSFNINRVATQAVEDVLNIAKRQGNLSLPLNRELVEKVTNEYNESLLYSPEEPKILFSIREPIANRVFSSSRQRCFSSKVCVRSRCWDACMVVDGGTSFEFNDGAIASMMINKEDELRTVLLEQ
- Km (purified protein): 2200 µM
- stoichiometry N (SEC): 2
